Experimental findings from paper PMC9266912, “CITF1 Functions Downstream of SPL7 to Specifically Regulate Cu Uptake in Arabidopsis” are described below.

Numbering of substitutions follows the chain as printed.

The target in data set [1] is T1, His-SPL7 (SBP domain) (Arabidopsis, UniProt Q8S9G8 122-228).
T1 sequence: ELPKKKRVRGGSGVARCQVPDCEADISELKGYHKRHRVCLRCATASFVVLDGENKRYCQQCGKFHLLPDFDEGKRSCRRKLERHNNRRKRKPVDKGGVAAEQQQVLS
Description: EMSA; Chemiluminescent EMSA Kit (Beyotime), manufacturer's protocol; buffer, salt, pH and temperature not stated. To be noted: protein: recombinant; tags: 6xHis (pET-28a); label: 5' biotin (probe); blunt.

Data set [2] concerns the target T1, His-SPL7 (SBP domain). Description: competition; cold mutant against biotin-N1; Chemiluminescent EMSA Kit (Beyotime), manufacturer's protocol; buffer, salt, pH and temperature not stated. The settings on record: protein: recombinant; tags: 6xHis (pET-28a); blunt. (In EMSA bound probe runs differently from free probe, usually more slowly.)

B1: ProCOPT2-G (dsDNA)
DNA 1: GATGATGTACTTGTACTACAGTACAACACATAC
DNA 2: GTATGTGTTGTACTGTAGTACAAGTACATCATC
B1: in data set [1], the binding result is “binds”.

B2: ProFRO4-G (dsDNA)
DNA 1: ACCCGTACAACGTATTCGTTACGAACCAATTTCTA
DNA 2: TAGAAATTGGTTCGTAACGAATACGTTGTACGGGT
On to B2, for which the binding result in data set [1] is listed as “binds”.

B3: ProCITF1-G (dsDNA)
DNA 1: CCATTTGTACTGCATAAAGACCCCCCACGTACATACAT
DNA 2: ATGTATGTACGTGGGGGGTCTTTATGCAGTACAAATGG
For B3, the binding result in data set [1] is “binds”.

B4: mProCITF1-G (dsDNA)
DNA 1: B3 DNA 1 with T8G, A9C, T30G, A31C
DNA 2: B3 DNA 2 with T8G, A9C, T30G, A31C
As to B4, the binding result in data set [2] was “no binding”.

B5: ProFRO5-G (dsDNA)
DNA 1: CTATCATGTACGTTTTTAAGAGTTTCGTACAAATTCACGT
DNA 2: ACGTGAATTTGTACGAAACTCTTAAAAACGTACATGATAG
Turning to B5, the binding result in data set [1] is on record as “binds”.
